Measurements reported in patent US20220106400A1 (Bristol-Myers Squibb, published 2022).

Tests used:
[1] = target: T1, hCD32a-H131 (FcgRIIa-H131) (human, UniProt P12318 36-218); test: SPR, FcgR analyte titration on protein A captured dAb-Fc
T1 construct: not shown: C-terminal his-tag
T1 sequence (looked up): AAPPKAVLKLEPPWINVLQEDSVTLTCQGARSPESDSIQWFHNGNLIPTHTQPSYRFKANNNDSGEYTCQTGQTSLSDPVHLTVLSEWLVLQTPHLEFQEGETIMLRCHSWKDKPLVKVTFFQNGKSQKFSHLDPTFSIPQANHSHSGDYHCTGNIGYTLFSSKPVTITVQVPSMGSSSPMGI
Procedure: (§1) A second SPR assay for testing the interaction between antibodies or dAb-Fc proteins with FcgR proteins is a protein A capture method. These experiments are also performed on either a Biacore™ T100 or Biacore™ T200 instrument (GE Healthcare) at 25° C. For these studies, protein A is immobilized on flow cells 1-4 of a CM5 sensor chip using standard ethyl (dimethylaminopropyl) carbodiimide (EDC)/N-hydroxysuccinimide (NHS) chemistry, with ethanolamine blocking, in a running buffer of 10 mM HEPES pH 7.4, 150 mM NaCl, 3 mM EDTA, 0.05% surfactant p20, to a density of ˜3000 RU.

[2] = target: T2, hCD32a-R131 (FcgRIIa-R131) (human, UniProt P12318 36-218); test: as above
T2 construct: not shown: C-terminal his-tag
T2 sequence (looked up): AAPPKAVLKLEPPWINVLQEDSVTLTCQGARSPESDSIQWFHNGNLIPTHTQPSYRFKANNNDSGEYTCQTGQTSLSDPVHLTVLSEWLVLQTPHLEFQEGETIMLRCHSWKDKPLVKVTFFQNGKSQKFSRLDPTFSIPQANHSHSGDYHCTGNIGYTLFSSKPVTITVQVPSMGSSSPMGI
Procedure: as §1

[3] = target: T3, hCD32b (FcgRIIb) (human, UniProt P31994 46-217); test: as above
T3 construct: not shown: C-terminal his-tag
T3 sequence (looked up): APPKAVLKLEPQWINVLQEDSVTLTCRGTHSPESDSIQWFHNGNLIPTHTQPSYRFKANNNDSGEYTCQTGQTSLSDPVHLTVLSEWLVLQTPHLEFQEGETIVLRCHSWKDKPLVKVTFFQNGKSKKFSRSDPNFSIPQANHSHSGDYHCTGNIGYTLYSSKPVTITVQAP
Procedure: as §1

[4] = target: T4, hCD16a-V158 (FcgRIIIa-V158) (human, UniProt P08637 17-208); test: as above
T4 construct: not shown: C-terminal his-tag
Procedure: as §1

[5] = target: T5, hCD16b-NA2 (FcgRIIIb-NA2) (human, UniProt O75015 17-200, limits assumed); test: as above
T5 construct: not shown: C-terminal his-tag
Procedure: as §1

[6] = target: T6, hCD40-Fc (human, UniProt P25942 21-193); test: SPR, immobilized hCD40-Fc, dAb-Fc analyte (avidity)
T6 construct: not shown: Fc part of hCD40-Fc, not described

[7] = target: T7, human GITR (human, UniProt Q9Y5U5 26-241); test: cell-based or functional assay
T7 sequence (looked up): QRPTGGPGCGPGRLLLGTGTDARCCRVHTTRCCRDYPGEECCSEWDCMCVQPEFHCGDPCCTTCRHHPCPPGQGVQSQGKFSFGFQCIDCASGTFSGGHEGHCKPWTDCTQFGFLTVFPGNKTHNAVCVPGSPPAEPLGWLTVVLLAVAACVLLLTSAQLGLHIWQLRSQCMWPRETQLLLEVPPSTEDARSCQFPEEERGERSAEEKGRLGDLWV

T6 sequence (P25942 21-193): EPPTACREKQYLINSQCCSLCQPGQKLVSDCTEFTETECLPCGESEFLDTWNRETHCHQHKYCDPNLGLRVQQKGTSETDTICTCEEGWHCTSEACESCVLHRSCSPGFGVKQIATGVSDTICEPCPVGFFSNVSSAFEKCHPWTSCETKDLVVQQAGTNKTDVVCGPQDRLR
T5 sequence (O75015 17-200 N65S limits assumed): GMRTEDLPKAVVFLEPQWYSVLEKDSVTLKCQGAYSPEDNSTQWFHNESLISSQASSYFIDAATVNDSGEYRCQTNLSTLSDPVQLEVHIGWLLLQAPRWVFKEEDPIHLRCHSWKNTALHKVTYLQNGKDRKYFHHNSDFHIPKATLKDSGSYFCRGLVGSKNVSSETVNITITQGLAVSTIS
T4 sequence (P08637 17-208 F176V limits assumed): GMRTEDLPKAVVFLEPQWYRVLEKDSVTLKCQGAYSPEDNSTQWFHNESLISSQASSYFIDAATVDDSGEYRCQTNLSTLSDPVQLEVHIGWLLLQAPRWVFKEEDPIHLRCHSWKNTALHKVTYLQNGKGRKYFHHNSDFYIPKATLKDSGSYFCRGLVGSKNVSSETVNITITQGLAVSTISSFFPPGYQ

B1: 3h56-269-IgG1.1f (Fc fusion)
chain: EVQLLESGGGLVQPGGSLRLSCAASGFTFRDYEMWWVRQAPGKGLERVSAINPQGTRTYYADSVKGRFTISRDNSKNTLYLQMNSLRAEDTAVYYCAKLPFRFSDRGQGTLVTVSSASTEPKSCDKTHTCPPCPAPEAEGAPSVFLFPPKPKDTLMISRTPEVTCVVVDVSHEDPEVKFNWYVDGVEVHNAKTKPREEQYNSTYRVVSVLTVLHQDWLNGKEYKCKVSNKALPSSIEKTISKAKGQPREPQVYTLPPSREEMTKNQVSLTCLVKGFYPSDIAVEWESNGQPENNYKTTPPVLDSDGSFFLYSKLTVDKSRWQQGNVFSCSVMHEALHNHYTQKSLSLSPGK
notes: anti-CD40 dAb-Fc
Kd [1]: > 5 µM
Kd [2]: > 5 µM
Kd [3]: > 5 µM
Kd [4]: > 5 µM
Kd [5]: > 5 µM

B2: 3h56-269-IgG1.3f (Fc fusion)
chain: EVQLLESGGGLVQPGGSLRLSCAASGFTFRDYEMWWVRQAPGKGLERVSAINPQGTRTYYADSVKGRFTISRDNSKNTLYLQMNSLRAEDTAVYYCAKLPFRFSDRGQGTLVTVSSASTEPKSCDKTHTCPPCPAPEAEGAPSVFLFPPKPKDTLMISRTPEVTCVVVDVSHEDPEVKFNWYVDGVEVHNAKTKPREEQYNSTYRVVSVLTVLHQDWLNGKEYKCKVSNKALPAPIEKTISKAKGQPREPQVYTLPPSREEMTKNQVSLTCLVKGFYPSDIAVEWESNGQPENNYKTTPPVLDSDGSFFLYSKLTVDKSRWQQGNVFSCSVMHEALHNHYTQKSLSLSPGK
notes: dAb-Fc fusion protein
KDapparent [6]: < 1 nM

B3: 3h56-269-IgG1.1f (Fc fusion)
chain: EVQLLESGGGLVQPGGSLRLSCAASGFTFRDYEMWWVRQAPGKGLERVSAINPQGTRTYYADSVKGRFTISRDNSKNTLYLQMNSLRAEDTAVYYCAKLPFRFSDRGQGTLVTVSSASTEPKSCDKTHTCPPCPAPEAEGAPSVFLFPPKPKDTLMISRTPEVTCVVVDVSHEDPEVKFNWYVDGVEVHNAKTKPREEQYNSTYRVVSVLTVLHQDWLNGKEYKCKVSNKALPSSIEKTISKAKGQPREPQVYTLPPSREEMTKNQVSLTCLVKGFYPSDIAVEWESNGQPENNYKTTPPVLDSDGSFFLYSKLTVDKSRWQQGNVFSCSVMHEALHNHYTQKSLSLSPGK
notes: dAb-Fc fusion protein
KDapparent [6]: < 1 nM

B4: GITR.6.G2 (antibody, human IgG2, kappa)
heavy: QVQLVESGGGVVQPGRSLRLSCAASGFTFSSYGMHWVRQAPGKGLEWVAVIWYEGSNKYYADSVKGRFTISRDNSKNTLYLQMNSLRAEDTAVYYCARGGSMVRGDYYYGMDVWGQGTTVTVSSASTKGPSVFPLAPCSRSTSESTAALGCLVKDYFPEPVTVSWNSGALTSGVHTFPAVLQSSGLYSLSSVVTVPSSNFGTQTYTCNVDHKPSNTKVDKTVERKCCVECPPCPAPPVAGPSVFLFPPKPKDTLMISRTPEVTCVVVDVSHEDPEVQFNWYVDGVEVHNAKTKPREEQFNSTFRVVSVLTVVHQDWLNGKEYKCKVSNKGLPAPIEKTISKTKGQPREPQVYTLPPSREEMTKNQVSLTCLVKGFYPSDIAVEWESNGQPENNYKTTPPMLDSDGSFFLYSKLTVDKSRWQQGNVFSCSVMHEALHNHYTQKSLSLSPGK
light: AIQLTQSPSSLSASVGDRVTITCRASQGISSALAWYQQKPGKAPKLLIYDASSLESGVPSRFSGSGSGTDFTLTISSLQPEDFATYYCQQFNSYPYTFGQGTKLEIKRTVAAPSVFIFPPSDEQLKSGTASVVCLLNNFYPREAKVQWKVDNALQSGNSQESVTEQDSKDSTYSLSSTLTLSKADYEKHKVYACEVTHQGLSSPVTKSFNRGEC
NFKB signaling in TCR activated CD4+ T cells, EC50 [7]: 0.0128 µM
NFKB signaling in TCR activated CD4+ T cells, Emax [7]: 69%
NFKB signaling in TCR activated CD8+ T cells, EC50 [7]: 0.009 µM
NFKB signaling in TCR activated CD8+ T cells, Emax [7]: 85%
